Laboratory results published in patent publication US8198021.

Legend:
[1] = target: Escherichia coli RNA polymerase (RNAP) holoenzyme (Escherichia coli) (UniProt P0A7Z4); assay: transcription assay at four NTP concentrations, fit to partial-competitive inhibition (7-mer and 8-mer abortive products); Ki called the reciprocal of the equilibrium binding constant for the MccJ25-RNAP interaction
[2] = target: Escherichia coli RNA polymerase (RNAP) holoenzyme (Escherichia coli) (UniProt P0A7Z4); assay: fluorescence-detected abortive initiation assay (tri- and tetranucleotide synthesis), fit to partial-competitive inhibition
[3] = tested on: microcin J25

Substance	Ki [1] [nM]	Ki [2] [nM]	α, the factor by which MccJ25 increases KM for NTPs (7-mer and 8-mer abortive products) [3]	α, the factor by which MccJ25 increases KM for NTPs (fluorescence-detected abortive initiation, tri- and tetranucleotide synthesis) [3]
microcin J25 (peptide)	1400	1200		
Escherichia coli RNA polymerase (RNAP) holoenzyme			15	α 8.7±2
